# In the supplement of paper PMC12636428:
# System: Saccharomyces cerevisiae
# Assay: transcriptional activation domain activity (GFP:mCherry ratio, weighted mean of sorted bins, harmonized to initial dataset scale) (arbitrary fluorescence ratio units); higher = stronger transcriptional activation
# Conditions: beta-estradiol 1 µM; induction time 4 h
# Procedure: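 53-aa protein tiles (fungal proteins plus yeast TF control tiles) fused C-terminally to a DBD-estrogen-binding domain-mCherry synthetic TF, integrated in S. cerevisiae (URA3 locus) with a GFP reporter. Cells were induced with 1 uM beta-estradiol for 4 h at 30 C, FACS-sorted into 8 bins by GFP:mCherry ratio and barcodes sequenced. Activity is the read-weighted mean bin fluorescence (GFP:mCherry), averaged over barcodes (median 12); tiles under 50 reads were discarded. New active-learning values were harmonized by linear fit onto the scale of the initial (Hummel et al.) dataset. The assay saturates at low and high signal.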
row,Sequence,transcriptional activation domain activity
1,AVPGEVTEAEADSDVKTDDAAAAPATDEAAKPKKKKKKFARKPRRKAAAPAEG,17100
2,AVPGEVTEAEANGEAKAEGAAATTDEAAKPKKKKKSKSRKAKKTEDGTAPEEG,37900
3,AVPGEVTEAEANGETDKAEGAAPAEGDAEKPKKKKKKSAKKPKSTGAEGEAAE,24700
4,AVRAATSVLCKEMLRPGQSASLGLREAEEVECRMRALARLERVWVKTGASTNG,54900
5,AVRLCRVTIKDITDPLPEGLRLSILLMSMDSLRLGRLYQVLDYMTIRSSLGKV,44600
6,AVRLLSTKKISMSQANIGQTYFAHYCLSLLRLARYALSTMIKMFGPVYGWWLF,64300
7,AVSAGLMSGFGSSSDEDEDEEQENEEDVNNEVSYPLHKLSHRFFFGHNAPSGA,15700
8,AVTCMTIFATISLKLNQQDMLTPWYTSLPLHRRLLHQWFCGLLHWMGFYLVWS,65900
9,AVVILGDLHPRGYNSNWFLMYYTGWLTFIFFITLLWALANLAWLRYTARVLPC,29300
10,AVVVTVWKLCDHPVMAWILGLIRCLTKKLKEVRQCKEELKQFFRDVVCKIEIA,39000
11,AVWGTGYGKYFVLVLCLFAGINITSCWVLIKYLGGLTWCTLFFKNRLLWINFV,60400
12,AVWPLSERSKFHNIISVDLSDLGDVINPDVGTITELVCFDESIADLYPVGLDS,122000
13,AWAVQTKVYLNYLWHTTNKFTTGFKVIYIQCHPDFVTWEQMKIMAMFLCCLCF,55800
14,AWCHLSVVGRASNLVVYLLIRARKLQLDLGLGFYQRSLLMLCEKLIVVDIFSL,63400
15,AWKRVTALLGPVVRLKADIVEIFERVMIIYFRSLDLEEKPITAGILGTVNKWN,48300
16,AWLIHCILLFPWSSKLFPSWCGHMTSCYEFYVLGAISVCNCAVVFVYWLILLV,56600
17,AWPLHLTLGKIPKSIRYQDYHRACRVLAYFPIIHVKGGIIRPAWWWSHCKKLI,36300
18,AWVLSLFLSFFGIGLVLGSGIWDLGFGLVFLFLVFSFFWGWFWVVLCVVYVDR,33800
19,AWWIGLSGGLYGCITLMPIFFHDSPYYAPLSFTAWFLYMESFWYLPFLDLCYL,46000
20,AYANDKESTREKFILVVWIGPQCKVMRKAKVSVHAADVKTTLRVYSIEVAARE,35700
21,AYAVMVVIQSLFLCLFGMAFQFSFFLNANFVVVYSIFVLYGWAMICFALFLST,46800
22,AYFAQDSEEELMSPTQSITSNLASEENTRCTTKDLMGTVSIFMLPMVEECYNI,75100
23,AYHSAKHVIVPNDGKLLAMTDPLISDLDEDGQKGLLIISRGTALLLLGVYIAY,47300
24,AYLTFCIYLCFWSYLNLRLAGLFFFSLFIILFPPRVSWLHYFSFLFYSGVFCF,51000
25,AYMREMCVCLRDLFEALGCNKLTTLRIMLYNDAYCLGQSPTFRIRYLMSQLEP,49600
26,AYNALIFALVVCICTFGCCAYIFVSSLFIHKLYNKFIILAAHIWMIIFWLVDL,62400
27,AYNALQILSWTCRLICSSVLSLHWFRPGHESILQLYDSITFFLTMFFIELLSH,49100

row,Sequence,transcriptional activation domain activity
1,AYNLILIIRWCLFIITIYYCYTLVLYHHYKVNFKQLIRKSMSPIKNNNLIHQF,65300
2,AYPTAAAVAPSTPKGKQRDVADELADLSVSKSSGSASKAKAKGSSPAAAKAAA,14900
3,AYSITLPICSSPILLLFIQSLLFLLPLFSITLSPSFSFILYLLHLFSLLLLCL,30200
4,AYTATNVGIPFNRAMDHLHRMMSRFEYCIFEGTSLPVFGIIGLQVRCQWLGCS,73700
5,AYTDEDDAHQIRRKQLSMVLRGMPSVFDSLTHARVYLELIFRQMEHYLYVAAT,42200
6,AYTSTMFLQWHNHMVEFYHLRCMLGATLRNLDNENPGASLPVQLWLLFAWHML,42100
7,AYWVVLGIWWFIFQQHCPGPPLPMGKNYLTIGWKQIWLAVKQYKHMPYTFIYL,53300
8,CASPIFRLKYLYKIPSGIAAMAHIFSVVNHFTFFELMWLMERWNFRRALLGLM,62900
9,CCIRNSLFQEDSKCIKQQPDLLSEQTAPFPILEDQCPALNLDRSNNDLLLQNN,35300
10,CCLLRTLGRFLLFIIFSPSLSTSSFQTLPLTLPFYLLSIFTKKPLYPIPFLCI,44800
11,CCMVWGRRWLIVLFPIFCLITVFVFKILEVFTGAFSWVENVRFLVVYLSCILA,34800
12,CCQSNSLLNMENYLVPYDNFREVVDSRLQEESHSNGVDNSNSNSDNKDSIRPK,24200
13,CDAGILLCLVCYLSSKLIYLFLVEKVFIIRGNRQRWTDKLFLFNMFGMLLPYC,51600
14,CDAPKLGLSGATLFEMIRFLDLYQGDWDSFLSQILVHAQIIRVLREALLILTV,65300
15,CDEHINMKEKEPEKDETPAADGAAKEEEKKPETKPDDTFQAFVVIAVALISMG,27600
16,CDLQQSHYTPWRILFGLREPLVSAMNYLITYIPRGESSVIIGIRTFVLFSLCF,37900
17,CDNIYLQQDQCGYVLEHCMDATPGLFNYIQLYYCSSFRPLVFIFMCGWLLFLF,54900
18,CDSGNEFDGRIGLRVSSIFVILIGSLIGAMLPVVLARSSKMRVPKLAFFVAKY,36900
19,CDSVYLHQDQCAHVLEYCMDATPGLINYIQLYFCSPIKPFIFLIMCCWLLFLF,51500
20,CDTGILLCLVCYLSSKVLLYFFLVEKVHVIRGNNDSRWKDKLFVFNCFGMMLP,38100
21,CDTVAHSAGRRERGRKQAGKRNDKERREGEERGKTGKTKRRGVARAGTGASAS,14800
22,CEMQFAKDTVVRRYCLLLECLELLPVSAIKAVTRMLHRIVVKCGCVAMFFKMS,70400
23,CEPLRKATRGLVTTVVNGNDVVPSLSIGVVRDFHSVALSFKEDTGGVLGEVRK,39100
24,CFALVVAFGISRNTLLVKAFRCIQYCLSKMSYCLATRLQCCPEYSCYIHQPGD,75300
25,CFAMVQQIFAKLLIMFEPRLDIPLLKFYTLLYRSVYYAICRRQQLYQEDMIAA,57700
26,CFCCNYFKVPLFCCSLSLYQTIRFFLIFLLLLLQRPSFSVFLVNSILLRFFPL,37600
27,CFFLFYIIHLPLLFIHITKSMYVLIVSRFVSSFPVSVGWAVGRAHGFGPLFAQ,51900

row,Sequence,transcriptional activation domain activity
1,CFFYSAIWLTTIPHCTGRCVRPCGVHLINLGHVCRNHSRYWGYCICNNKMTPY,57600
2,CFICYGYIVIRWWIEADRDPELIHQALVMIWYPIAYFVEIFPQSMVRVLNMHA,52600
3,CFILLHLVLSFFALSCLYCLVLLLLPLPLILLFLLSSPWKFVPVHLQRHFVVV,68600
4,CFKHIGLYWAERGITLGRLEQLVGCHSLFSALERQASLRAWSILGMLLTIVWF,61400
5,CFKLSLVALWPFGKSIDWNLRSAGCLSTVFNVIWLVLLGWHLCLIHLGLMLLF,43600
6,CFLVLSCRWLLVLPALTYLATSVLYTYDITITVTGQTRSVRLPSSIACILNVA,42200
7,CFSILFSRFAGPSIYLGMRILIMLLYVTLTLWTPWLFYFWVSILSLCIAPFLF,44300
8,CFSKCLDGHTLLLCTLYFLIINQKLLYCYVIVFFFWIWLSISLSYICVSELYY,57100
9,CFSLCFSLCFPFAFPLLFPFFPLLFPLLFPLLSLCFSLCFSLLPFPLELPFLF,37100
10,CFYLTTRFWDYKRKSYHYFLFGLCYFVNIMDLFYIWFFRDNVYYFIMCWCLTL,57200
11,CGFVVFVIRWSTVSVGYLGIIRWLVICKKLQFSEIKRIMRVYFCHMALFIFTL,40900
12,CGLCALVYHSLRFQLQSNMDVLLFRYNGSYKMVVVAATTKHLLLEDIKIKLLC,45700
13,CGQILLTICLLPLLFFFFFFFFWSKGVSPFLSHLSSVLLIMLGRIMQIVVGLW,38300
14,CGRCRCCRGLLPLYPHHPFSFFVLLCIPGMFLLLLVHWMFLSFVSGFAILVPE,79500
15,CGSQSPALLYPYYQIDTIVPCIRDLESYYKSAGFPTTTLIWPLFLHLMILFVV,75400
16,CHLLLVCLFYDFLTIEYYLYGSLLLLLLHDCFLLKICEFIVRPTCLPGLFHAK,60500
17,CHLTVIYFMSVPVIYLRLARLLFLEILTAGRIAIEGNGLGQGSLLAKTLRGRQ,66500
18,CHVLRMYTPYWILFPNDLIQLLKVIPALRCLHILSKGIRIIRWKPLPYLLWED,51800
19,CIFFFSYYGIRILQRGVLLLFILLFYISLCDPLLFPPLFFFSSSFLGRAFFLY,89800
20,CIGAMVLIVLWAGGVCILVLVMCIPLEGVWDRRVNAKCIPHMTVMWYFNGVFN,62900
21,CIIFPHPFFSYSFFSFSPLFFFFFPSFLSFLSFLPSFLFFFSIVTPSSSSSTY,55100
22,CIIIVFIIRFLVLDLIGMFVCIYWVSFLFYFILFYFISRMVLHRVFFFFSFLI,49700
23,CIKATLAPDSAIFVGPSALIFHVLQLSILIILLLKTGGPGSGKGTQCTRLAKD,29600
24,CILVYLCHVSYLILLPRFDYVYNIIFNMVIGLTHNALWLLYSLPTSISLFRRF,53500
25,CIVLEKYIGRLLGLPCDMVFSVFTAASTLLYDSQTKEPNPDTSRRLKLCIHWL,68500
